According to patent US20210388087A1 (Chugai, published 2021):
Residue numbers refer to the chain shown, from its start. Numbers in names are those of the source. One block for each binder: values may come before it.

Target: T1, Human CD3eg linker (human)
T1 construct: Single-chain construct; also called recombinant human CD3
T1 chain: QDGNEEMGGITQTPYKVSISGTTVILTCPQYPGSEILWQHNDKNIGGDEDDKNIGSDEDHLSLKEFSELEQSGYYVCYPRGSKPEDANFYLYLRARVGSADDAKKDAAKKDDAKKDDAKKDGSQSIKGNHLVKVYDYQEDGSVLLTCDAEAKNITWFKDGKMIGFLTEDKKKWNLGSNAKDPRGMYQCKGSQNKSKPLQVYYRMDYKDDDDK
Test: SPR; fold vs parent H183/L072

- fold change of affinity: 1.4 fold
B1: H183/L072 VL S52G (antibody, name in Kabat numbering, V domains shown)
VH: QVQLVESGGGLVQPGRSLRLSCAASGFTFSNAWMHWVRQAPGKGLEWVAQIKDKGNAYAAYYAPSVKGRFTISRDDSKNSIYLQMNSLKTEDTAVYYCHYVHYASASTVLPAFGVDAWGQGTTVTVSS
VL: DIVMTQSPLSLPVTPGEPASISCQASQELVHMNRNTYLHWYQQKPGQAPRLLIYKVGNRFPGVPDRFSGSGSGTDFTLKISRVEAEDVGVYYCAQGTSVPFTFGQGTKLEIK

- fold change of affinity: 0 fold
B2: H183/L072 VL T31G (antibody, name in Kabat numbering, V domains shown)
VH: B1 VH
VL: B1 VL with T36G, G57S

- fold change of affinity: 1.7 fold
B3: H183/L072 VL S52H (antibody, name in Kabat numbering, V domains shown)
VH: B1 VH
VL: B1 VL with G57H

- fold change of affinity: 0.4 fold
B4: H183/L072 VL T31E (antibody, name in Kabat numbering, V domains shown)
VH: B1 VH
VL: B1 VL with T36E, G57S

- fold change of affinity: 0.8 fold
B5: H183/L072 VL S93G (antibody, name in Kabat numbering, V domains shown)
VH: B1 VH
VL: B1 VL with G57S, S98G

- fold change of affinity: 1.4 fold
B6: H183/L072 VL S52W (antibody, name in Kabat numbering, V domains shown)
VH: B1 VH
VL: B1 VL with G57W

- fold change of affinity: 0.9 fold
B7: H183/L072 VL S93L (antibody, name in Kabat numbering, V domains shown)
VH: B1 VH
VL: B1 VL with G57S, S98L

- fold change of affinity: 0.4 fold
B8: H183/L072 VL T31K (antibody, name in Kabat numbering, V domains shown)
VH: B1 VH
VL: B1 VL with T36K, G57S

- fold change of affinity: 0 fold
B9: H183/L072 VL T92E (antibody, name in Kabat numbering, V domains shown)
VH: B1 VH
VL: B1 VL with G57S, T97E

- fold change of affinity: 1.3 fold
B10: H183/L072 VL S52T (antibody, name in Kabat numbering, V domains shown)
VH: B1 VH
VL: B1 VL with G57T

- fold change of affinity: 0 fold
B11: H183/L072 VL T31L (antibody, name in Kabat numbering, V domains shown)
VH: B1 VH
VL: B1 VL with T36L, G57S

- fold change of affinity: 1 fold
B12: H183/L072 VL S93M (antibody, name in Kabat numbering, V domains shown)
VH: B1 VH
VL: B1 VL with G57S, S98M

- fold change of affinity: 0.7 fold
B13: H183/L072 VL T31V (antibody, name in Kabat numbering, V domains shown)
VH: B1 VH
VL: B1 VL with T36V, G57S

- fold change of affinity: 0.1 fold
B14: H183/L072 VL T92A (antibody, name in Kabat numbering, V domains shown)
VH: B1 VH
VL: B1 VL with G57S, T97A

- fold change of affinity: 1.8 fold
B15: H183/L072 VL S52R (antibody, name in Kabat numbering, V domains shown)
VH: B1 VH
VL: B1 VL with G57R

- fold change of affinity: 1.1 fold
B16: H183/L072 VL S93A (antibody, name in Kabat numbering, V domains shown)
VH: B1 VH
VL: B1 VL with G57S, S98A

- fold change of affinity: 1.6 fold
B17: H183/L072 VL S52L (antibody, name in Kabat numbering, V domains shown)
VH: B1 VH
VL: B1 VL with G57L

- fold change of affinity: 1.6 fold
B18: H183/L072 VL S52V (antibody, name in Kabat numbering, V domains shown)
VH: B1 VH
VL: B1 VL with G57V

- fold change of affinity: 0 fold
B19: H183/L072 VL T31N (antibody, name in Kabat numbering, V domains shown)
VH: B1 VH
VL: B1 VL with T36N, G57S

- fold change of affinity: 1.1 fold
B20: H183/L072 VL S93W (antibody, name in Kabat numbering, V domains shown)
VH: B1 VH
VL: B1 VL with G57S, S98W

- fold change of affinity: 0.9 fold
B21: H183/L072 VL S93H (antibody, name in Kabat numbering, V domains shown)
VH: B1 VH
VL: B1 VL with G57S, S98H

- fold change of affinity: 0.1 fold
B22: H183/L072 VL T31H (antibody, name in Kabat numbering, V domains shown)
VH: B1 VH
VL: B1 VL with T36H, G57S

- fold change of affinity: 1.5 fold
B23: H183/L072 VL S52I (antibody, name in Kabat numbering, V domains shown)
VH: B1 VH
VL: B1 VL with G57I

- fold change of affinity: 0.7 fold
B24: H183/L072 VL T31I (antibody, name in Kabat numbering, V domains shown)
VH: B1 VH
VL: B1 VL with T36I, G57S

- fold change of affinity: 1 fold
B25: H183/L072 VL S93F (antibody, name in Kabat numbering, V domains shown)
VH: B1 VH
VL: B1 VL with G57S, S98F

- fold change of affinity: 0.4 fold
B26: H183/L072 VL T31R (antibody, name in Kabat numbering, V domains shown)
VH: B1 VH
VL: B1 VL with T36R, G57S

- fold change of affinity: 0.7 fold
B27: H183/L072 VL S93V (antibody, name in Kabat numbering, V domains shown)
VH: B1 VH
VL: B1 VL with G57S, S98V

- fold change of affinity: 0.2 fold
B28: H183/L072 VL T31A (antibody, name in Kabat numbering, V domains shown)
VH: B1 VH
VL: B1 VL with T36A, G57S

- fold change of affinity: 0.7 fold
B29: H183/L072 VL S93D (antibody, name in Kabat numbering, V domains shown)
VH: B1 VH
VL: B1 VL with G57S, S98D

- fold change of affinity: 0 fold
B30: H183/L072 VL T31D (antibody, name in Kabat numbering, V domains shown)
VH: B1 VH
VL: B1 VL with T36D, G57S

- fold change of affinity: 0.8 fold
B31: H183/L072 VL S93N (antibody, name in Kabat numbering, V domains shown)
VH: B1 VH
VL: B1 VL with G57S, S98N

- fold change of affinity: 1.5 fold
B32: H183/L072 VL S52N (antibody, name in Kabat numbering, V domains shown)
VH: B1 VH
VL: B1 VL with G57N

- fold change of affinity: 1 fold
B33: H183/L072 VL S93R (antibody, name in Kabat numbering, V domains shown)
VH: B1 VH
VL: B1 VL with G57S, S98R

- fold change of affinity: 1 fold
B34: H183/L072 VL S93Q (antibody, name in Kabat numbering, V domains shown)
VH: B1 VH
VL: B1 VL with G57S, S98Q

- fold change of affinity: 0.4 fold
B35: H183/L072 VL T31Q (antibody, name in Kabat numbering, V domains shown)
VH: B1 VH
VL: B1 VL with T36Q, G57S

- fold change of affinity: 0 fold
B36: H183/L072 VL T92D (antibody, name in Kabat numbering, V domains shown)
VH: B1 VH
VL: B1 VL with G57S, T97D

- fold change of affinity: 1 fold
B37: H183/L072 VL S93K (antibody, name in Kabat numbering, V domains shown)
VH: B1 VH
VL: B1 VL with G57S, S98K

- fold change of affinity: 1 fold
B38: H183/L072 VL S93E (antibody, name in Kabat numbering, V domains shown)
VH: B1 VH
VL: B1 VL with G57S, S98E

- fold change of affinity: 0.8 fold
B39: H183/L072 VL S93I (antibody, name in Kabat numbering, V domains shown)
VH: B1 VH
VL: B1 VL with G57S, S98I

- fold change of affinity: 0.3 fold
B40: H183/L072 VL T92F (antibody, name in Kabat numbering, V domains shown)
VH: B1 VH
VL: B1 VL with G57S, T97F

- fold change of affinity: 1.4 fold
B41: H183/L072 VL S52Q (antibody, name in Kabat numbering, V domains shown)
VH: B1 VH
VL: B1 VL with G57Q

- fold change of affinity: 1 fold
B42: H183/L072 VL S93T (antibody, name in Kabat numbering, V domains shown)
VH: B1 VH
VL: B1 VL with G57S, S98T

- fold change of affinity: 0.5 fold
B43: H183/L072 VL T31S (antibody, name in Kabat numbering, V domains shown)
VH: B1 VH
VL: B1 VL with T36S, G57S

- fold change of affinity: 1.4 fold
B44: H183/L072 VL S52M (antibody, name in Kabat numbering, V domains shown)
VH: B1 VH
VL: B1 VL with G57M

- fold change of affinity: 1.9 fold
B45: H183/L072 VL S52K (antibody, name in Kabat numbering, V domains shown)
VH: B1 VH
VL: B1 VL with G57K
